For test [1], the target named is T1, recombinant laminin α3 2928-3150 protein (linker domain and LG4 domain) (human, UniProt Q16787 2928-3150).
T1 construct: range 2928-3150; Made in HEK-293F cells; also called laminin alpha 3 LG domain recombinant protein
T1 sequence: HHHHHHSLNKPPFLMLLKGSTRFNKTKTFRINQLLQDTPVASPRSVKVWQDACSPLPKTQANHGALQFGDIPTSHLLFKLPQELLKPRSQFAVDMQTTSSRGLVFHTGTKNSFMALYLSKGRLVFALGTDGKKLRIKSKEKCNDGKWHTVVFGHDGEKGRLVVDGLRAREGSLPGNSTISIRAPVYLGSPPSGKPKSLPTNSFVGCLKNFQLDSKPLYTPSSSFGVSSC
Kind of test: ELISA, LG domain protein coated, GF 1 µg/mL. The method, then: (§1) Affinity of GFs against recombinant laminin LG domains. ELISA plates were coated with 1 μg/mL (A) α3₂₉₂₈₋₃₁₅₀, (B) α4₈₂₆₋₁₈₁₆, or (C) α5₃₀₂₆₋₃₄₈₂ and further incubated with 1 μg/mL of VEGF-A165, VEGF-A121, PlGF-2, PlGF-1, PDGF-BB, or FGF-2 solution. Bound GFs were detected using a specific antibody for each GF (n=4, mean±SEM). Statistical analyses were done using the Mann-Whitney U test by comparing the signals obtained from the laminin domain- and the BSA-coated wells. *p<0.05, **p<0.01. […] A SPR chip was functionalized with the laminin α3₂₉₂₈₋₃₁₅₀ recombinant protein (˜1000 RU), and each GF was flowed over the chip at indicated concentrations. Curves represent the specific responses (in RU) to laminin. Experimental curves were fitted with Langmuir binding kinetics.
ELISA tests were performed as described above. […] 1 μg/mL of BSA served as non-binding protein control. After blocking with 2% BSA PBS-0.05% Tween 20 (PBS-T) solution, 1 μg/mL of the recombinant human proteins (VEGF-A121, VEGF-A165, PlGF-1, PlGF-2, PDGF-BB or FGF-2) or 10 μg/mL of biotinylated heparin (Sigma-Aldrich) were added. Bound GF was detected with biotinylated antibodies for human VEGF, PlGF, PDGF-BB, or FGF-2 (R&D Systems). The antibodies were detected by streptavidin-HRP (R&D Systems).

In test [2] the target is T2, laminin-521 (human, UniProt O15230 36-3695; P55268 33-1798; P11047 34-1609).
T2 construct: Full-length recombinant human laminin isoform (BioLamina); chains read from the isoform name
Nature of the test: SPR; laminin-521 immobilised on the chip (~2000 RU), PlGF-2 flowed at 20-75 nM; Langmuir fit. The method, then: (§2) A450 nm represents absorbance at 450 nm. BSA-coated wells served as negative controls (n=4, mean±SEM). Signals greater than 0.1 (grey box) are considered to be significant. […] Experimental curves were fitted with Langmuir binding kinetics.
(§3) The obtained binding curves were fitted with Langmuir binding kinetics to calculate specific dissociation constants (KD) (FIG. 1B).
(§4) SPR analysis was performed as described previously². In brief, measurements were made with a Biacore 3000 SPR system (GE Healthcare). […] VEGF-A165, PDGF-BB, or PlGF-2 was flowed at increasing concentrations in the running buffer at 20 μL/min. The sensor chip was regenerated with 50 mM NaOH for every cycle. Specific bindings of GFs to laminin were calculated by comparison to a non-functionalized channel used as a reference. Experimental results were fitted with Langmuir binding kinetics using BIAevaluation software (GE Healthcare).
On the technique in general: Surface plasmon resonance follows binding to a sensor surface in real time, without labels.

In test [3] the target is T3, laminin-411 (human, UniProt Q16363 25-1823; P07942 22-1786; P11047 34-1609).
T3 construct: Full-length recombinant human laminin isoform (BioLamina); chains read from the isoform name
Nature of the test: ELISA; plate coated with 10 µg/mL laminin, 1 µg/mL PlGF-2 in solution without or with 10 µM heparin, bound GF detected with antibody [panel B]. On the procedure: (§5) FIGS. 2A-C. […] ELISA plates were coated with 10 μg/mL laminin and further incubated with a 1 μg/mL (A) VEGF-A165, (B) PlGF-2, or (C) FGF-2 solution in the absence or presence of excess (10 μM) heparin. Bound GFs were detected using a specific antibody for each GF (n=4, mean±SEM). Statistical analyses were done using the Mann-Whitney U test by comparing the signals with and without heparin. *p<0.05, **p<0.01.
(§6) Because the GFs that bound to laminins have also been previously reported to bind to other ECM glycoproteins through HBDs, it was hypothesized that HBDs of laminins might be responsible for the interactions between GFs and laminin. To address this hypothesis, ELISA assays were repeated for VEGF-A165, PlGF-2 or FGF-2 in the presence of heparin added in excess (10 μM). […] To further confirm this, the inventors tested direct GF binding to the LG domains from human laminin α3, α4 and α5, within which HBDs of laminin were localized.
For orientation: An ELISA detects its analyte on a solid surface through an enzyme-linked reagent.

Test [4] concerns the target T4, laminin-421 (human, UniProt Q16363 25-1823; P55268 33-1798; P11047 34-1609).
T4 construct: Full-length recombinant human laminin isoform (BioLamina); chains read from the isoform name
The test is described as above. The method, then:
as §5, §6

Test [5] has as its target T5, laminin-211 (human, UniProt P24043 23-3122; P07942 22-1786; P11047 34-1609).
T5 construct: Full-length recombinant human laminin isoform (BioLamina); chains read from the isoform name
The test is described as above. The method, then:
as §5, §6

Test [6] deals with T6, laminin-111 (human, UniProt P25391 18-3075; P07942 22-1786; P11047 34-1609).
T6 construct: Full-length recombinant human laminin isoform (BioLamina); Chain composition is read from the isoform name
Described as above. On the procedure:
as §5, §6

The target of test [7] is T2, laminin-521. Kind of test: SPR, laminin-521 immobilised, GF flowed, Langmuir fit. The method, then:
as §2, §3, §4

Test [8] deals with T7, human plasma-derived vWF (human, UniProt P04275 764-2813).
T7 construct: mature; also called plasma-derived purified vWF; von Willebrand factor
Kind of test: ELISA, GF coated 50 nM, vWF 1 µg/mL.

Test [9] concerns the target T8, recombinant human vWF A1 domain (human, UniProt P04275 1261-1468, limits assumed).
T8 construct: domain: A1; also called vWF A1 recombinant protein; recombinant A1 domain
Nature of the test: ELISA, A1 domain coated, GF 1 µg/mL. On the procedure:
ELISA tests were performed as described above. […] After blocking with 2% BSA solution containing PBS-T, 1 μg/mL of the recombinant human proteins VEGF-A121, VEGF-A165, PlGF-1, PlGF-2, PDGF-BB, FGF-2, CXCL-12α and CXCL-12γ were added. 1 μg/mL of BSA served as non-binding protein control. Bound GF or chemokine was detected with biotinylated antibodies for human VEGF-A, PlGF, PDGF-BB, FGF-2, or CXCL-12 (R & D Systems). The antibodies were detected by streptavidin-HRP (R & D Systems). Color development and the absorbance measurement were done as described above.

For test [10], the target named is T1, recombinant laminin α3 2928-3150 …. Kind of test: SPR, α3 2928-3150 immobilised, GF flowed, Langmuir fit. On the procedure:
as §1, §6
SPR analysis was performed as described previously². […]

Test [11] shares this target. Nature of the test: SPR; α3 2928-3150 recombinant protein immobilised (~1000 RU), PDGF-BB flowed at 0.325-41.6 nM; Langmuir fit [panel D].
From the text: Statistical analyses were done using the Mann-Whitney U test by comparing the signals obtained from the laminin domain- and the BSA-coated wells. *p<0.05, **p<0.01. […] A SPR chip was functionalized with the laminin α3₂₉₂₈₋₃₁₅₀ recombinant protein (˜1000 RU), and each GF was flowed over the chip at indicated concentrations. Curves represent the specific responses (in RU) to laminin. Experimental curves were fitted with Langmuir binding kinetics.
as §6
SPR analysis was performed as described previously². In brief, measurements were made with a Biacore 3000 SPR system (GE Healthcare). […] VEGF-A165, PDGF-BB, or PlGF-2 was flowed at increasing concentrations in the running buffer at 20 μL/min. The sensor chip was regenerated with 50 mM NaOH for every cycle.

Test [12] deals with T2, laminin-521. Nature of the test: SPR; laminin-521 immobilised on the chip (~2000 RU), PDGF-BB flowed at 25-200 nM; Langmuir fit. The method, then:
as §2, §3, §4

Test [13] has as its target T7, human plasma-derived vWF. Kind of test: SPR; plasma-derived vWF immobilised (~2000 RU), PDGF-BB flowed at 25-200 nM; heterogeneous ligand-parallel reactions fit, site 2 [panel D]. The method, then: (§7) A450 nm represents absorbance at 450 nm. Signals from VEGF-A121 served as a baseline, and bovine serum albumin (BSA) served as a negative control (n=4, mean±SD). […] Experimental curves were fitted with (C) 1:1 Langmuir fit model and (D) heterogeneous ligand-parallel reactions binding.
(§8) SPR assays were performed as described previously2. In brief, measurements were made with a Biacore X100 SPR system or Biacore 3000 SPR system (GE Healthcare). […] Recombinant human VEGF-A165, VEGF-A121, or PDGF-BB was flowed at increasing concentrations in the running buffer at 30 μL/min. The sensor chip was regenerated with glycine at pH 2 for every cycle.

The target of test [14] is T7, human plasma-derived vWF. Nature of the test: SPR, vWF immobilised, GF flowed, heterogeneous ligand-parallel reactions fit. The method, then: as §7, §8
The target in test [15] is T7, human plasma-derived vWF. Nature of the test: SPR; plasma-derived vWF immobilised (~2000 RU), PDGF-BB flowed at 25-200 nM; heterogeneous ligand-parallel reactions fit, site 1 [panel D]. On the procedure: as §7, §8
For test [16], the target named is T3, laminin-411. Kind of test: ELISA, GF coated, laminin 10 nM.
The target of test [17] is T4, laminin-421. Nature of the test: ELISA, GF coated, laminin 10 nM.
The target of test [18] is T5, laminin-211. Kind of test: ELISA, GF coated, laminin 10 nM.
For test [19], the target named is T6, laminin-111. Nature of the test: ELISA, GF coated, laminin 10 nM.

T4 sequence (Q16363 25-1823 limits assumed, chain 1 of 3): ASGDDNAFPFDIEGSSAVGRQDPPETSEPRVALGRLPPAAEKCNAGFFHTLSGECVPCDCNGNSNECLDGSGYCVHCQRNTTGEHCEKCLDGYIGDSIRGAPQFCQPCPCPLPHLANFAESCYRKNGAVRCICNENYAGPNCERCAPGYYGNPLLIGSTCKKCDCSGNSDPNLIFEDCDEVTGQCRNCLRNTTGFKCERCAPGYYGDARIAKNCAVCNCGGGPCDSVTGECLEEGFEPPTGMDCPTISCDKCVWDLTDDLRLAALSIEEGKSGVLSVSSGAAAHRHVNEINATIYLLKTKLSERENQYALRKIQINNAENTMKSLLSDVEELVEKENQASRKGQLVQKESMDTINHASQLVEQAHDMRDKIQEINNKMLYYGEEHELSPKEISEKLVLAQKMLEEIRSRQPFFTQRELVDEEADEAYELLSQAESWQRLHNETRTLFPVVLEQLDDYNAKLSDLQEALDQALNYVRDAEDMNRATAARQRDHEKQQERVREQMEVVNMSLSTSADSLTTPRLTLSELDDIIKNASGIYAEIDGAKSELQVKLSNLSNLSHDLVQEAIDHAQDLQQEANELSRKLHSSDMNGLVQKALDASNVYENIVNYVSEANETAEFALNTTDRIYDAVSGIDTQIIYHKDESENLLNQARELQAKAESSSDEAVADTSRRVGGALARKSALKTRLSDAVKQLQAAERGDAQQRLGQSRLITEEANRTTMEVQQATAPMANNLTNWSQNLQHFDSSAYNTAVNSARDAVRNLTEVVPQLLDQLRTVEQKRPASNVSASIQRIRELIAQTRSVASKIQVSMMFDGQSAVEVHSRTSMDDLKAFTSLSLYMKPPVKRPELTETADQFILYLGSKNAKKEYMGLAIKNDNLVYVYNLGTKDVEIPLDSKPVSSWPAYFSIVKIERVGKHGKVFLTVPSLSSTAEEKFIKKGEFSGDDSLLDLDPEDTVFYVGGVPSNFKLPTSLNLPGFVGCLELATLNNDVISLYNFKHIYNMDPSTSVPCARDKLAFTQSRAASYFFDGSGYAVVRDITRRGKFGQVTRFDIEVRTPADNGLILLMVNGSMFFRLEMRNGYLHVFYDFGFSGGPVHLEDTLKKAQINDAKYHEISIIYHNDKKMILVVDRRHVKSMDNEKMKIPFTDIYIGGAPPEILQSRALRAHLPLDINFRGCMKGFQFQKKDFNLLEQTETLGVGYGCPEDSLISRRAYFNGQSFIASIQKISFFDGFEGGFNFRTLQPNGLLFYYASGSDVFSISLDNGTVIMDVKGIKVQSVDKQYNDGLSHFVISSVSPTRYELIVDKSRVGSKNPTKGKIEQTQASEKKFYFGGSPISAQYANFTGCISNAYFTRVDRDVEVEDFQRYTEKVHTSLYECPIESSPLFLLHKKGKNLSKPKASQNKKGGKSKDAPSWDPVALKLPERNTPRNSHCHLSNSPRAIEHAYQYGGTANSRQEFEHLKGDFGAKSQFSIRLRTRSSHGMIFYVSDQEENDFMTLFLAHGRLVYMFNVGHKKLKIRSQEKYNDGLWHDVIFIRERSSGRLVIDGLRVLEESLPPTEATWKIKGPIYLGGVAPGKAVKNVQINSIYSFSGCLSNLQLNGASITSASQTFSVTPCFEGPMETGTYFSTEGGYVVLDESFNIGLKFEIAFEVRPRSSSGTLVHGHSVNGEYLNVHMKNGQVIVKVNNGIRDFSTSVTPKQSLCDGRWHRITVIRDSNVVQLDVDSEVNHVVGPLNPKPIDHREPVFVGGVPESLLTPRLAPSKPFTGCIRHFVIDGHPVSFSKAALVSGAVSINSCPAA
T4 sequence (P55268 33-1798 limits assumed, chain 2 of 3): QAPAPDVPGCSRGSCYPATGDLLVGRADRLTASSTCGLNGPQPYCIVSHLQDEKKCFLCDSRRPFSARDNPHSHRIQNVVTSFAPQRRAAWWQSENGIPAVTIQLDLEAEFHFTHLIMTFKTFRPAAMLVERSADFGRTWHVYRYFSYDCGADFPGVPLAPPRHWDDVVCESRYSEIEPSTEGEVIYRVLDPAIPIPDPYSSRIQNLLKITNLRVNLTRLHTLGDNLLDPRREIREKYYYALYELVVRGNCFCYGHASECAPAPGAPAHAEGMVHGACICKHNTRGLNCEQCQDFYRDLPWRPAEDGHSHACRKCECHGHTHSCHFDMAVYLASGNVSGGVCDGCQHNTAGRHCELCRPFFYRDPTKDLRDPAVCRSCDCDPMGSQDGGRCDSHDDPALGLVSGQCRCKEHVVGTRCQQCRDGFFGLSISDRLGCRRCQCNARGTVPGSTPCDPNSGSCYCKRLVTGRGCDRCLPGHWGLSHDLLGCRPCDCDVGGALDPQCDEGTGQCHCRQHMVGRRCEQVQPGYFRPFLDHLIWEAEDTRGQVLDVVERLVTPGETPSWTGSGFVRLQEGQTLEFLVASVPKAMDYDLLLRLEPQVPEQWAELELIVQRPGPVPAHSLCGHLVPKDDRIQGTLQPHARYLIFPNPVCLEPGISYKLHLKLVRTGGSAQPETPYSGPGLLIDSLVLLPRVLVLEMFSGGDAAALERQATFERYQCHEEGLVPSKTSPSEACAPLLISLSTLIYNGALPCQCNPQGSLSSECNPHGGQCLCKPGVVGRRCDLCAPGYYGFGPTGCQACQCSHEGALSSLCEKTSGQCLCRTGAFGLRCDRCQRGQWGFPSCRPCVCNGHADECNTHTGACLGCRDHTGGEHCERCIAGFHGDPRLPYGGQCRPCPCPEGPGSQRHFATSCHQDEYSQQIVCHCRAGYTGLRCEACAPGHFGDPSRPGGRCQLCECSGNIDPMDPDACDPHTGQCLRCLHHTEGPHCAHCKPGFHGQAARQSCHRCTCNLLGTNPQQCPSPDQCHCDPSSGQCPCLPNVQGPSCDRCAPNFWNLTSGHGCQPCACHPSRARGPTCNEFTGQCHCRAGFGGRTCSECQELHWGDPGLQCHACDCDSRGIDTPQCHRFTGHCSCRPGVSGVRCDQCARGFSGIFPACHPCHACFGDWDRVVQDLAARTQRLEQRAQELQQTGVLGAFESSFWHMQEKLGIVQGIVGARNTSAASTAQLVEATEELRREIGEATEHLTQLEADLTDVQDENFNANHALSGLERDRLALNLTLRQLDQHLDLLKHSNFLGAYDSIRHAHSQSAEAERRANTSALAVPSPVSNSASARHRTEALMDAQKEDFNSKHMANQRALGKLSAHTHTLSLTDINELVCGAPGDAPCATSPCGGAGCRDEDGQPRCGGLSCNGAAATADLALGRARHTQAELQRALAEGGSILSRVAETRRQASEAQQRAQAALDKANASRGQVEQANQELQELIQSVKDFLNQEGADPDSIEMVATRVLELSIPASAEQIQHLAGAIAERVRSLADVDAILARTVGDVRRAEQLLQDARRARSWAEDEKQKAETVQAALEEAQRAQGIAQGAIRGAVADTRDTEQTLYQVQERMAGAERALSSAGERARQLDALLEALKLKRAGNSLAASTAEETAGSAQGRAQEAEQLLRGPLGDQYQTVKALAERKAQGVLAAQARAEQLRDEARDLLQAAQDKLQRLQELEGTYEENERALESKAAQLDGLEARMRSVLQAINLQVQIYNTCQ
T4 sequence (P11047 34-1609 limits assumed, chain 3 of 3): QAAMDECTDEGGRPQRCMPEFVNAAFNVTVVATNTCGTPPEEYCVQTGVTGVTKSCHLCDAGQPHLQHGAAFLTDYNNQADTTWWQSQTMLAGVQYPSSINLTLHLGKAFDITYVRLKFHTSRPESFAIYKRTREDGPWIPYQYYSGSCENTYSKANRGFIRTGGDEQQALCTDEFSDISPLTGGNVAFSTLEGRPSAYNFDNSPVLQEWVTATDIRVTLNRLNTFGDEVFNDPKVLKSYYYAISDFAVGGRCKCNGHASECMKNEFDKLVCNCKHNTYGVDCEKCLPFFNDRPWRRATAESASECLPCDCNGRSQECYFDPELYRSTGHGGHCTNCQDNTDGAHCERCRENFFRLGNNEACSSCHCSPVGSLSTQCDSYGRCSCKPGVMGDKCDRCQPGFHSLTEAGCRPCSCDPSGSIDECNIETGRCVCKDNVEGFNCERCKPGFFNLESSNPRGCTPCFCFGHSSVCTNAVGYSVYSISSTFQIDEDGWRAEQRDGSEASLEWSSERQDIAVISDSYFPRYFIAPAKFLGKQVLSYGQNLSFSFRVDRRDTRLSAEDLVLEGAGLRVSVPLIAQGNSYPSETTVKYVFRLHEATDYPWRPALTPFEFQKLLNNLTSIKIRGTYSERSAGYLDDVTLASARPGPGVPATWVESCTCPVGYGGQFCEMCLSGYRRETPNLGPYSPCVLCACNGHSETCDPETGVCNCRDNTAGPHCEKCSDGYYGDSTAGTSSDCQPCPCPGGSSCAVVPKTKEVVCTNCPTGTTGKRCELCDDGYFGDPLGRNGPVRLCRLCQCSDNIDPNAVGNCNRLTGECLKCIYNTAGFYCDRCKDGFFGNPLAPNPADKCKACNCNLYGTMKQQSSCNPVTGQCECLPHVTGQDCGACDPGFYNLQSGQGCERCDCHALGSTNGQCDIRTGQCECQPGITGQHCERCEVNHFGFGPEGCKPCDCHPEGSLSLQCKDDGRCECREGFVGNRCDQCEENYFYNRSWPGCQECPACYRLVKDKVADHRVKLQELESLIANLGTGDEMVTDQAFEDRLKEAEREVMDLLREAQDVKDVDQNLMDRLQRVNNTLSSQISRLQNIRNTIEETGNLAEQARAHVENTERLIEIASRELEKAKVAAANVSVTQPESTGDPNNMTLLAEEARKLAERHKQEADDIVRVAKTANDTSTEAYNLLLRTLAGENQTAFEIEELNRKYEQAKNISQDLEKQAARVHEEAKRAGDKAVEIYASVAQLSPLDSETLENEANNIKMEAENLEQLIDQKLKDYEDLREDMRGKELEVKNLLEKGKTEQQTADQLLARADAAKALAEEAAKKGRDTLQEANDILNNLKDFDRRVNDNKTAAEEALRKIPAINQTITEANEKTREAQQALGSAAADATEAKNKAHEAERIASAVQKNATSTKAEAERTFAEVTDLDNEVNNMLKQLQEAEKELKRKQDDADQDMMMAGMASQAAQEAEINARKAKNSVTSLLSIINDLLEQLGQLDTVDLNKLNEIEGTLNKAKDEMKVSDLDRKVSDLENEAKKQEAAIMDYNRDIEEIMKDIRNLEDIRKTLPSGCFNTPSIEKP

B1: placental growth factor (PlGF)-2 (ligand, human, UniProt P49763-3 19-170, looked up)
chain: LPAVPPQQWALSAGNGSSEVEVVPFQEVWGRSYCRALERLVDVVSEYPSEVEHMFSPSCVSLLRCTGCCGDENLHCVPVETANVTMQLLKIRSGDRPSYVELTFSQHVRCECRPLREKMKPERRRPKGRGKRRREKQRPTDCHLCGDAVPRR
notes: mature; Purchased in mature form
As to B1, the binding result in test [1], in test [3], in test [4], in [5], in test [6] and in test [8] was “binds” throughout. In addition, in test [9], the binding result is “binds”. Moreover, the koff in test [2] came out at 0.0246 s⁻¹. The kon in [2] came out at 1.91e+06 M⁻¹ s⁻¹. In test [7], this molecule gave a Kd of 12.9 nM.

B2: platelet-derived growth factor (PDGF)-BB (ligand, human, UniProt P01127 82-190, looked up)
chain: SLGSLTIAEPAMIAECKTRTEVFEISRRLIDRTNANFLVWPPCVEVQRCSGCCNNRNVQCRPTQVQLRPVQVRKIEIVRKKPIFKKATVTLEDHLACKCETVAAARPVT
notes: as for B1
As for B2, the Kd in [10] is 10.2 nM; in test [11], 12.1 nM; in test [7] it was 24.2 nM; in [13], 23.8 nM; in test [14], 24 nM; in [15] it was 154 nM. The koff in test [11] turned out to be 0.0136 s⁻¹; in test [12], 0.00497 s⁻¹; in test [13], 0.00508 s⁻¹; in test [15], 0.0664 s⁻¹. In addition, the kon in test [11] was 1.12e+06 M⁻¹ s⁻¹; in [12] it was 206000 M⁻¹ s⁻¹; in [13], 213000 M⁻¹ s⁻¹; in [15], 430000 M⁻¹ s⁻¹. Further, the binding result in test [16], in [17], in [18] and in test [19] was “binds” each time.

What is called koff is a measure of how fast the partners let go of each other. As a reminder, the kon is the second-order rate constant of association. As a reminder, the Kd is the concentration at which binding is half-saturated.

These data come from US20240092867A1 (UNIVERSITY OF CHICAGO, published 2024).
